The text below walks through data of patent US20260265358A1 (BYOMASS, published 2026).

Where a chain is given by its changes, count along the chain named.

One assay deals with T1, Human GDNF (human, UniProt P39905 78-211).
T1 sequence (looked up): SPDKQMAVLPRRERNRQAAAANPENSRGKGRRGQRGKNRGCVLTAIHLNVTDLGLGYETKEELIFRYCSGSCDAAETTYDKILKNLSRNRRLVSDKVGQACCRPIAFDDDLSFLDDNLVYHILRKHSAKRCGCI
Put plainly: Octet BLI, IgG, avid.

For assay [1], the target named is T2, Activin B (UniProt P09529 293-407).
T2 sequence (looked up): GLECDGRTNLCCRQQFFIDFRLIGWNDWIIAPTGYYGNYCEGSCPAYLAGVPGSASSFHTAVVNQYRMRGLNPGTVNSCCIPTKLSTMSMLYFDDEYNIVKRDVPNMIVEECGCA
The assay is described as follows: Octet BLI, IgG, avid.

In the next assay the target is T3, GDF15 Fc (UniProt Q99988 197-308, limits assumed).
T3 construct: not shown: Fc part
T3 sequence (looked up): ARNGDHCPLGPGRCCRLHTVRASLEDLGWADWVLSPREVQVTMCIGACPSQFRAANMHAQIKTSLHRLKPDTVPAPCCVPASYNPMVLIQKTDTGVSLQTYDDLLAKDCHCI
The assay is described as follows: Octet BLI, IgG, avid.

The target of the next assay is Human GDF8 (human, UniProt O14793 267-375). The assay is described as follows: Octet BLI, IgG, avid.
The target of a further assay is T4, BMP10 (UniProt O95393 317-424).
T4 sequence (looked up): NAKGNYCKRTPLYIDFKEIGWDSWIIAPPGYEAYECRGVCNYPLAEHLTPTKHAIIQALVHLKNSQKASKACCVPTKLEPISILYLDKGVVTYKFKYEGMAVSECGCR
The assay is described as follows: Octet BLI, IgG, avid.

A further assay addresses T5, BMP9 (UniProt Q9UK05 320-429).
T5 sequence (looked up): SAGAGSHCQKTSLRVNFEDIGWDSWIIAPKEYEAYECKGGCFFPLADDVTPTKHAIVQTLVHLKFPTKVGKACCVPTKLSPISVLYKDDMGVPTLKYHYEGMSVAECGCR
The assay is described as follows: Octet BLI, IgG, avid.

The next assay deals with Human GDF11 (human, UniProt O95390 299-407). The assay is described as follows: Octet BLI, IgG, avid.
Human GDF11, sequence (O95390 299-407 limits assumed): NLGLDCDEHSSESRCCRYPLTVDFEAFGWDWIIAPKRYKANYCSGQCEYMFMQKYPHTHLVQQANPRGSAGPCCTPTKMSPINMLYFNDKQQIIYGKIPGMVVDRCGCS
The target of another assay is T6, Human GDF10 (human, UniProt P55107 369-478).
T6 sequence (looked up): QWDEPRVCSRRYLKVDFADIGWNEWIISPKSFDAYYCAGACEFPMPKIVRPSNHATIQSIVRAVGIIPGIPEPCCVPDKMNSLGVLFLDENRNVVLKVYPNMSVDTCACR
Put plainly: Octet BLI, IgG, avid.

The target in assay [2] is T2, Activin B. Put plainly: cell-based or functional assay.
The target in a further assay is T7, Human Activin A Fc (human, UniProt P03970 309-424 (pig entry)).
T7 construct: also called human Activin A-Fc fusion; human Activin A-Fc antigen; not shown: Fc part
T7 sequence: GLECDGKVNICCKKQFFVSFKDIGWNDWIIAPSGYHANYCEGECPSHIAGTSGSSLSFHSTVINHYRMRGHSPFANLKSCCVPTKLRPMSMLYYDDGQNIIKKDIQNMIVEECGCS
Put plainly: Octet BLI, IgG, avid. The procedure: ForteBio affinity measurements were performed on an Octet HTX generally as previously described (see, e.g., Estep et al, Mabs 5(2), 270-278 (2013)). Briefly, ForteBio affinity measurements were performed by loading IgGs on-line onto AHC sensors. Sensors were equilibrated off-line in assay buffer for 30 min and then monitored on-line for 60 seconds for baseline establishment. Sensors with loaded IgGs were exposed to 100 nM antigen for 3 minutes, and afterwards were transferred to assay buffer for 3 min for off-rate measurement. All kinetics were analyzed using the 1:1 binding model.
Binding affinity and epitope binning assays were performed with a ForteBio instrument as described herein.

For assay [3], the target named is T8, Activin A (ligand of the Activin 2B Receptor/SMAD reporter assay) (UniProt P08476 311-426).
T8 sequence (looked up): T7 sequence
The assay is described as follows: cell-based or functional assay.

B1: anti-Activin A antibody Clone C (IgG) (antibody, V domains shown)
VH: QVQLVQSGAEVKKPGASVKVSCKASGYTFPGYHMHWVRQAPGQGLEWMGVINPSSGDTNYAQKFQGRVTMTRDTSISTAYMELSRLRSDDTAVYYCARARDIAALGLGAFDYWGQGTLVTVSS
VL: EIVLTQSPGTLSLSPGERATLSCRASQSVSSSYLAWYQQKPGQAPRLLIYGASSRAGGIPDRFSGSGSGTDFTLTISRLEPEDFAVYYCQQYVAYPRTFGGGTKVEIKR
notes: IgG format
With B1, the binding result with Human GDNF, in the assay with GDF15 Fc, with Human GDF8, with BMP10, in the assay with BMP9 and with Human GDF10 was “no binding (tested: 100 nM antigen)” in each case. Also, the Kd with Activin B [1] was determined as 148 nM; with Human GDF11, 12.7 nM; with Human Activin A Fc it was 0.477 nM. The “Activin B-ActRIIB SMAD IC50 pM” value in the assay with Activin B [2] was above 100000 pM.

B2: anti-Activin A antibody Clone J (IgG) (antibody, V domains shown)
VH: EVQLVQSGAEVKKPGSSVKVSCKASGGTFSLYAISWVRQAPGQGLEWMGGIIPYFGTANYAQKFQGRVTITADESTSTAYMELSSLRSEDTAVYYCARGGSGYSTSWGSSLYWGQGTLVTVSS
VL: B1 VL with S53F, G57T, Y92S, V93G, A94V, Y95F, R97Y
For the molecule B2, in assay [3], the “Activin A-ActRIIB SMAD IC50 pM” value was 41.7 pM.

B3: anti-Activin A antibody Clone D (IgG) (antibody, V domains shown)
VH: B1 VH with P30F, H33S
VL: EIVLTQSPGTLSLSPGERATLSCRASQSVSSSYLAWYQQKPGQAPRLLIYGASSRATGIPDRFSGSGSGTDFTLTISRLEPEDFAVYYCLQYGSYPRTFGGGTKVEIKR
notes: IgG format; also called Antibody D
As for B3, the binding result with Human GDNF, with GDF15 Fc, with Human GDF8, in the assay with BMP10, in the assay with BMP9 and in the assay with Human GDF10 was “no binding (tested: 100 nM antigen)” throughout. Also, the results for the Kd with Activin B [1], with Human GDF11 and with Human Activin A Fc were 153 nM, 23.4 nM and 0.515 nM, respectively.

B4: anti-Activin A antibody Clone P (IgG) (antibody, V domains shown)
VH: QVQLVQSGAEVKKPGSSVKVSCKASGGTFDDYAISWVRQAPGQGLEWMGGIIPRFGIANYAQKFQGRVTITADESTSTAYMELSSLRSEDTAVYYCARPPSSGSDWGQGTLVTVSS
VL: DIQMTQSPSSVSASVGDRVTITCRASQGIDSWLAWYQQKPGKAPKLLIYAASSLQSGVPSRFSGSGSGTDFTLTISSLQPEDFATYYCQQVHSFPITFGGGTKVEIKR
notes: IgG format; also called Antibody P
With B4, the binding result in the assay with Human GDNF, with GDF15 Fc, in the assay with Human GDF8, with BMP10, with BMP9 and in the assay with Human GDF11 was “no binding (tested: 100 nM antigen)” each time. Moreover, in the assay with Human GDF10, the binding result is “no binding (tested: 100 nM antigen)”. In the assay with Human Activin A Fc, this molecule had a Kd of 1.28 nM.

B5: anti-Activin A antibody Clone M (IgG) (antibody, V domains shown)
VH: QLQLQESGPGLVKPSETLSLTCTVSGGSISSSDYYWGWIRQPPGKGLEWIGSIYYPANTYYNPSLKSRVTISVDTSKNQFSLKLSSVTAADTAVYYCARGYWNYGMDVWGQGTTVTVSS
VL: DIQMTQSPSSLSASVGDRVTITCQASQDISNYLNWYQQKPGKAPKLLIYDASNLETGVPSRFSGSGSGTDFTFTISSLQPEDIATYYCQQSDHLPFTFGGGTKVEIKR
notes: IgG format; also called Antibody M
For the molecule B5, the binding result with Human GDNF, with GDF15 Fc, in the assay with Human GDF8, in the assay with BMP10, with BMP9 and with Human GDF11 was “no binding (tested: 100 nM antigen)” in each case. The binding result with Human GDF10 was “no binding (tested: 100 nM antigen)”. Further, the Kd was determined as 9.58 nM in the assay with Activin B [1] and 1 nM in the assay with Human Activin A Fc. Besides, the “Activin A-ActRIIB SMAD IC50 pM” value in assay [3] amounted to 719 pM.

B6: anti-Activin A antibody Clone N (IgG) (antibody, V domains shown)
VH: B5 VH with N58S
VL: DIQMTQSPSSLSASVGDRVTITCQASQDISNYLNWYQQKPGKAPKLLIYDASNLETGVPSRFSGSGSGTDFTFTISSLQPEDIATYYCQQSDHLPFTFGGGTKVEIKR
notes: IgG format; also called Antibody N
Take B6: the binding result with Human GDNF, with GDF15 Fc, with Human GDF8, with BMP10, with BMP9 and with Human GDF11 was “no binding (tested: 100 nM antigen)” in each case. Moreover, in the assay with Human GDF10, the binding result was “no binding (tested: 100 nM antigen)”. Besides, the figures for the Kd with Activin B [1] and with Human Activin A Fc were 6.98 nM and 1.26 nM, respectively. Also, the “Activin A-ActRIIB SMAD IC50 pM” value in assay [3] was found to be 241 pM.

B7: anti-Activin A antibody Clone R (IgG) (antibody, V domains shown)
VH: QVQLVQSGAEVKKPGSSVKVSCKASGGSFSPYTISWVRQAPGQGLEWMGGIILTSGTANYAQKFQGRVTITADESTSTAYMELSSLRSEDTAVYYCARGGPLSGWRASYYYWGQGTLVTVSS
VL: not shown
notes: IgG format; also called Antibody R
For the molecule B7, the binding result in the assay with Human GDNF, with Activin B [1], in the assay with GDF15 Fc, in the assay with Human GDF8, with BMP10 and in the assay with BMP9 was “no binding (tested: 100 nM antigen)” throughout. For the same molecule, the binding result in the assay with Human GDF11 and in the assay with Human GDF10 was “no binding (tested: 100 nM antigen)” in each case. Also, the Kd with Human Activin A Fc was determined as 0.6 nM.

B8: anti-Activin A antibody Clone O (IgG) (antibody, V domains shown)
VH: QVQLVQSGAEVKKPGSSVKVSCKASGGTFSNYDINWVRQAPGQGLEWMGGIIPVFGTAAYAQKFQGRVTITADESTSTAYMELSSLRSEDTAVYYCAREARDGYRYAFQHWGQGTLVTVSS
VL: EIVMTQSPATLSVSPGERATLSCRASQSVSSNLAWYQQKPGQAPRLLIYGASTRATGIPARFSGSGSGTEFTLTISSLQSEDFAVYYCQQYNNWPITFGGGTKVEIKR
notes: IgG format; also called Antibody O
Consider B8, for which the binding result with Human GDNF, with Activin B [1], with GDF15 Fc, in the assay with Human GDF8, with BMP10 and in the assay with BMP9 was “no binding (tested: 100 nM antigen)” each time. For the same molecule, the binding result in the assay with Human GDF11 and in the assay with Human GDF10 was “no binding (tested: 100 nM antigen)” throughout. The Kd with Human Activin A Fc came out at 0.442 nM. For the same molecule, the “Activin A-ActRIIB SMAD IC50 pM” value in [3] was 5400 pM.
